Data: patent US20090098127A1 (MEDICAL RESEARCH FUND OF TEL AVIV SOURASKY MEDICAL CENTER, published 2009)

How the values were obtained:
HIF-1β = target: T1, HIF-1β (UniProt P27540 2-789, limits assumed); assay: co-IP with anti-Flag antibody, HIF-1β immunoblot, HEK 293 cells
T1 construct: Endogenous protein in HEK 293 lysates; also called HIF-1β protein
Source text: FIGS. 3a-f are autoradiograms illustrating HIF-1α immunoblotting of FLAG immunoprecipitates (IP) (FIG. 3b) or whole cell extracts (WCE) (FIG. 3a), FLAG immunoblotting of HIF-1α IP (FIG. 3d) or WCE (FIG. 3c), and HIF-1β immunoblotting of FLAG IP (FIG. 3f) or WCE (FIG. 3e). HEK 293 cells were transiently co-transfected with two of the following expression vectors: p3×Flag-cmv-25 (EV), pcdna3.1-HIF-1α (HIF-1α) or p3×Flag-MSF-A (MSF-A), and two days following transfection under normoxic conditions WCE or IP were subjected to immunoblot (IB) analysis. Lane 1-EV and HIF-1α; lane 2-MSF-A and HIF-1α.
To confirm the interaction between the HIF-1α and the MSF-A proteins, HEK 293 cells were transiently co-transfected with the p3×Flag-MSF-A and the pcDNA3.1-HIF-1α vectors, and were grown for 24 hours under normoxic conditions (i.e., conditions of 20% oxygen), following which whole cell extracts (WCE) were subjected to co-immunoprecipitation (IP) using anti-FLAG or anti-HIF-1α antibodies. Following IP, the proteins were subjected to SDS-PAGE and immunoblotting (IB) using the counterpart antibody. As is shown in FIGS. 3a-d, following transfection with both expression vectors (i.e., pcDNA3.1-HIF-1α and p3×Flag-MSF-A) immunoprecipitates generated using either the anti-HIF-1α antibody or the anti-Flag antibody included the reciprocal proteins, i.e., the Flag-MSF-A or HIF-1α proteins, respectively.

p300 co-activator = target: T2, p300 co-activator (UniProt Q09472 2-2414); assay: co-IP with anti-Flag antibody, p300 immunoblot; association within the HIF-1α complex, may be indirect
T2 construct: Endogenous protein, detected with anti-p300 antibody (Santa Cruz); also called p300 protein
T2 sequence (Q09472 2-2414 limits assumed): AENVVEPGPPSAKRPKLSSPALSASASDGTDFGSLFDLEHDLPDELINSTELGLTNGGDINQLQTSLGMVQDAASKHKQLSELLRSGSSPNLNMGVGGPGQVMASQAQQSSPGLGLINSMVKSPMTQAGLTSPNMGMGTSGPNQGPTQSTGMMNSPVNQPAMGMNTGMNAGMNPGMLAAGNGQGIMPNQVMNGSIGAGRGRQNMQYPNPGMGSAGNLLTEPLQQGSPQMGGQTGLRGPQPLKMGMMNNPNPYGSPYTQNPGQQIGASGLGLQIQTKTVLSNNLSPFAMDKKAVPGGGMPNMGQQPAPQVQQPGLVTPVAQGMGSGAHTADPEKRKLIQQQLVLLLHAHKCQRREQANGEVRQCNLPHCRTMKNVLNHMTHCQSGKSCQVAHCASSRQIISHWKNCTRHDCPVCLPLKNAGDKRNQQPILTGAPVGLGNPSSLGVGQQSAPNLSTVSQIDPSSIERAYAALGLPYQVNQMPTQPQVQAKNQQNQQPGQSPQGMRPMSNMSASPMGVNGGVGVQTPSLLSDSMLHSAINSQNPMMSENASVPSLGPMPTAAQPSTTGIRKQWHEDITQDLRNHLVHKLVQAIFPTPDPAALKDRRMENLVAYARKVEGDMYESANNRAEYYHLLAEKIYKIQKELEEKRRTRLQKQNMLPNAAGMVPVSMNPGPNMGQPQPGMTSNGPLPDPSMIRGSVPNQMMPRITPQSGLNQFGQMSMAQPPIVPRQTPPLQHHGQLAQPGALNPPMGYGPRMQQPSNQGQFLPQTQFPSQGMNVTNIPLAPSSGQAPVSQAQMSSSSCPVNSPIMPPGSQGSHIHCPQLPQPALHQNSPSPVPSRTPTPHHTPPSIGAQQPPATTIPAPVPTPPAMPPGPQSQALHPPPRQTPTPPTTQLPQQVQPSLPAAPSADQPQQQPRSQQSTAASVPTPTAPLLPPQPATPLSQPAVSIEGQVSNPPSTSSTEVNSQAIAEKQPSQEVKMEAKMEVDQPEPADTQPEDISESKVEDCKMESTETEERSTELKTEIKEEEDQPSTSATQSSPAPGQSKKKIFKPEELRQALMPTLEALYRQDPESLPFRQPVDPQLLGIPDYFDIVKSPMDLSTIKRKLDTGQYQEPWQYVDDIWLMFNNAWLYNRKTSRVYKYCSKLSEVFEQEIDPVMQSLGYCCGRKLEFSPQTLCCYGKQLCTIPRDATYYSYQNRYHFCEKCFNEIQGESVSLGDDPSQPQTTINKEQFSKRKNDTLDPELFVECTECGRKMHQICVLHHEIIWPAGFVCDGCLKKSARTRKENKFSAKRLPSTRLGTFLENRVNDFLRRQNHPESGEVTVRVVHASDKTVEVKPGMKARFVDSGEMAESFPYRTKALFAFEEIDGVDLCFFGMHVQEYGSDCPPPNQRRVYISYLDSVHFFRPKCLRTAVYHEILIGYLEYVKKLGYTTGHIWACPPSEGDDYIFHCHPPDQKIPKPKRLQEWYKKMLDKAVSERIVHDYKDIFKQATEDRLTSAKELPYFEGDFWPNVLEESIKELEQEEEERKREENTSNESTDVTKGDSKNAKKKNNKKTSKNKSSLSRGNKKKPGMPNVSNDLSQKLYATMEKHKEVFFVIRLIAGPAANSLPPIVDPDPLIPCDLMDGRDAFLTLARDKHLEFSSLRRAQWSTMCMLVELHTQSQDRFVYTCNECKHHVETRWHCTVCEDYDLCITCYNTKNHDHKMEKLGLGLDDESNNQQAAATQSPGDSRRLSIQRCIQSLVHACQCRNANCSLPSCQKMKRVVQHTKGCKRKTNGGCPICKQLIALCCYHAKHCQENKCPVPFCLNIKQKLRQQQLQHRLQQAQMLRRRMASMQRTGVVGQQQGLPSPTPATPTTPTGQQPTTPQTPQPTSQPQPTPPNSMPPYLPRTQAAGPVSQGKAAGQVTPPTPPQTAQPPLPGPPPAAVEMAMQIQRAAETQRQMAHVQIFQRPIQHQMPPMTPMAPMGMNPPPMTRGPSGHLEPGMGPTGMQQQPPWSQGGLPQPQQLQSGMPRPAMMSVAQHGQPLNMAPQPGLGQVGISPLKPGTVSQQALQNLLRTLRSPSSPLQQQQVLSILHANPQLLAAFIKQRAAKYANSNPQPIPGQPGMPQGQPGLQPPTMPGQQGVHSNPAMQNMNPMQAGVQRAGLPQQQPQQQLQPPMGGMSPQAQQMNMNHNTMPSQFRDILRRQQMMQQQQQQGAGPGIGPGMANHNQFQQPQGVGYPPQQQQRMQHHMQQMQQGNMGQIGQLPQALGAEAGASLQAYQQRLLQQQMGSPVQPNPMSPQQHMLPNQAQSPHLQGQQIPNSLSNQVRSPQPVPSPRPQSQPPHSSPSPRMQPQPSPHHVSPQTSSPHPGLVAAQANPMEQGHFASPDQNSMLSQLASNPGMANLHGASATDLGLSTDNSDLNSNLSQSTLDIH
Procedure: The p300 co-activator is associated with HIF-1α and MSF-A proteins—To test the hypothesis that proteins, which are known to interact with the HIF-1α protein, such as the co-activator p300, are associated with MSF-A and HIF-1α, cells were co-transfected with the pcDNA3.1-HIF-1α and the p3×Flag-MSF-A expression vectors and IP experiments were performed using either anti-FLAG or anti-HIF-1α antibodies. As shown in FIGS. 5a-c, while the anti-HIF-1α antibody was capable of precipitating the p300 protein in both cells co-transfected with the pcDNA3.1-HIF-1α and the p3×Flag-cmv-25 expression vector alone and cells co-transfected with the pcDNA3.1-HIF-1α and the p3×Flag-MSF-A vectors, the anti-Flag antibody was capable of precipitating the p300 protein only in cells that were co-transfected with the pcDNA3.1-HIF-1α and the p3×Flag-MSF-A vectors.

[1] = target: T3, hypoxia-inducible factor 1, alpha subunit isoform 1 (HIF-1α), untagged (human, UniProt Q16665 1-826); assay: cell-based or functional assay
T3 sequence (Q16665 whole entry, canonical isoform): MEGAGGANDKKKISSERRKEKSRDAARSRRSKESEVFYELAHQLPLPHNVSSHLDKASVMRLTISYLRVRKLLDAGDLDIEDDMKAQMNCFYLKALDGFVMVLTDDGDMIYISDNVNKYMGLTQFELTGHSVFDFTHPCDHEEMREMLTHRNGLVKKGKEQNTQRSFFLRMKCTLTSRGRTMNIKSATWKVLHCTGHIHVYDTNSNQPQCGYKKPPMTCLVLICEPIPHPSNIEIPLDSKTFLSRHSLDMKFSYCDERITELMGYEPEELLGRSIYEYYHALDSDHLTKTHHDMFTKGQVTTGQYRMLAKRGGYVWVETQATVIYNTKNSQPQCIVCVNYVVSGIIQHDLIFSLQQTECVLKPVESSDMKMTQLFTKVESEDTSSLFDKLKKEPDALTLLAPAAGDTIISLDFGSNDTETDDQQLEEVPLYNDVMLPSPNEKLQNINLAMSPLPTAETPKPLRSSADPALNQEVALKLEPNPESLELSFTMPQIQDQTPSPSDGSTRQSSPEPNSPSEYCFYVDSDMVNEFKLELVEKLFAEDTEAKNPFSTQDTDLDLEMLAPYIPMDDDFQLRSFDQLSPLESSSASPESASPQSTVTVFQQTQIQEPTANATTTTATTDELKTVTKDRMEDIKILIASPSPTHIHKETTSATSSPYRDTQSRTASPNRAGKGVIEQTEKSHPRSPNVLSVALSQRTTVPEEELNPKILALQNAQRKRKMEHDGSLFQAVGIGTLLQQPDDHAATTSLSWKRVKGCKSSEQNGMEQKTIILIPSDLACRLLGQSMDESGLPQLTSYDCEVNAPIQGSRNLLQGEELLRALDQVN

[2] = target: T3, hypoxia-inducible factor 1, alpha …; assay: IP with HIF-1α antibody, Flag immunoblot, HEK 293 cells

T1 sequence (P27540 2-789 limits assumed): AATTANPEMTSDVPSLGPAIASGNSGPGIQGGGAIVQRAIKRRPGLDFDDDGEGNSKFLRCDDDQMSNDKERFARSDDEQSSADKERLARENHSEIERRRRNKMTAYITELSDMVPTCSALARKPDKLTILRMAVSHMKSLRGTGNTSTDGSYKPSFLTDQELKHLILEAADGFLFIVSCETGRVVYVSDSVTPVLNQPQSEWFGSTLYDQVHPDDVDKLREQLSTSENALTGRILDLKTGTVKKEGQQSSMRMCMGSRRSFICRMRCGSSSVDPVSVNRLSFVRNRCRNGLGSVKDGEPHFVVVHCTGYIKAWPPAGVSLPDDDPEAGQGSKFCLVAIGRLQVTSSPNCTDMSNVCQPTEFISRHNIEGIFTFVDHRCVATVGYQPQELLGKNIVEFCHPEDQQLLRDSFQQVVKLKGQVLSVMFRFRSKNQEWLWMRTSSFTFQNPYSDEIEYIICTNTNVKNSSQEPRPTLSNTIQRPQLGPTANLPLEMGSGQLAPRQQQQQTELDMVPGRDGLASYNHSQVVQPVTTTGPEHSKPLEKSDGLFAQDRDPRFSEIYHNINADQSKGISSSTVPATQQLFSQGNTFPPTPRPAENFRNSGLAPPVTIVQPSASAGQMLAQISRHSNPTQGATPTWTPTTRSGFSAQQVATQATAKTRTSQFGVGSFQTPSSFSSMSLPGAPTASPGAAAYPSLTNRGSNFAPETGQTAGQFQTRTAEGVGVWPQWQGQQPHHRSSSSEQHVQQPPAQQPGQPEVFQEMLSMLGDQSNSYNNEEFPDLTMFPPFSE

Row | binding result (HIF-1β) | binding result (p300 co-activator) | degradation half-life of HIF-1α (cycloheximide, PC-3-MSF-A cells against PC-3-Neo cells) [1] [min] | half-life of HIF-1α protein (pulse-chase, PC-3-MSF-A cells against PC-3-Neo cells) [1] [min] | luciferase activity (HRE reporter), hypoxia as compared to normoxia, PC-3 cells [1] [fold] | binding result [2] | Binder
1 | no binding | binds | 40 | ~45 | 50 |  | Flag-MSF-A (p3×Flag-MSF-A product, wild type) (other, not shown: small tags and cut ends, FLAG at the amino terminal of the recombinant protein; Expressed in HEK 293 or PC-3 cells and assayed in lysates; also called Flag-tagged MSF-A; recombinant MSF-A) MKKSYSGGTRTSSGRLRRLGDSSGPALKRSFEVEEVETPNSTPPRRVQTPLLRATVASSTQKFQDLGVKNSEPSARHVDSLSQRSPKASLRRVELSGPKAAEPVSRRTELSIDISSKQVENAGAIGPSRFGLKRAEVLGHKTPEPAPRRTEITIVKPQESAHRRMEPPASKVPEVPTAPATDAAPKRVEIQMPKPAEAPTAPSPAQTLENSEPAPVSQLQSRLEPKPQPPVAEATPRSQEATEAAPSCVGDMADTPRDAGLKQAPASRNEKAPVDFGYVGIDSILEQMRRKAMKQGFEFNIMVVGQSGLGKSTLINTLFKSKISRKSVQPTSEERIPKTIEIKSITHDIEEKGVRMKLTVIDTPGFGDHINNENCWQPIMKFINDQYEKYLQEEVNINRKKRIPDTRVHCCLYFIPATGHSLRPLDIEFMKRLSKVVNIVPVIAKADTLTLEERVHFKQRITADLLSNGIDVYPQKEFDEDSEDRLVNEKFREMIPFAVVGSDHEYQVNGKRILGRKTKWGTIEVENTTHCEFAYLRDLLIRTHMQNIKDITSSIHFEAYRVKRLNEGSSAMANGVEEKEPEAPEM
2 |  |  |  |  |  | binds | Flag-ΔG-MSF-A (p3×Flag-ΔG-MSF-A product) (other, also called AG-MSF-A; not shown: N-terminal Flag tag from vector p3×Flag-myc-CMV-25) MKKSYSGGTRTSSGRLRRLGDSSGPALKRSFEVEEVETPNSTPPRRVQTPLLRATVASSTQKFQDLGVKNSEPSARHVDSLSQRSPKASLRRVELSGPKAAEPVSRRTELSIDISSKQVENAGAIGPSRFGLKRAEVLGHKTPEPAPRRTEITIVKPQESAHRRMEPPASKVPEVPTAPATDAAPKRVEIQMPKPAEAPTAPSPAQTLENSEPAPVSQLQSRLEPKPQPPVAEATPRSQEATEAAPSCVGDMADTPRDAGLKQAPASRNEKAPVDFGYVGIDSILEQMRRKAMKQGFEFNIMVVTLINTLFKSKISRKSVQPTSEERIPKTIEIKSITHDIEEKGVRMKLTVIDTPGFGDHINNENCWQPIMKFINDQYEKYLQEEVNINRKKRIPDTRVHCCLYFIPATGHSLRPLDIEFMKRLSKVVNIVPVIAKADTLTLEERVHFKQRITADLLSNGIDVYPQKEFDEDSEDRLVNEKFREMIPFAVVGSDHEYQVNGKRILGRKTKWGTIEVENTTHCEFAYLRDLLIRTHMQNIKDITSSIHFEAYRVKRLNEGSSAMANGVEEKEPEAPEM
3 |  |  |  |  |  | binds | Flag-ΔN-MSF-A (p3×Flag-ΔN-MSF-A product) (other, Deletion of the first 25 amino acids of MSF-A; also called N-terminal truncated form of MSF-A; not shown: N-terminal Flag tag from vector p3×FLAG-myc-CMV-25) ALKRSFEVEEVETPNSTPPRRVQTPLLRATVASSTQKFQDLGVKNSEPSARHVDSLSQRSPKASLRRVELSGPKAAEPVSRRTELSIDISSKQVENAGAIGPSRFGLKRAEVLGHKTPEPAPRRTEITIVKPQESAHRRMEPPASKVPEVPTAPATDAAPKRVEIQMPKPAEAPTAPSPAQTLENSEPAPVSQLQSRLEPKPQPPVAEATPRSQEATEAAPSCVGDMADTPRDAGLKQAPASRNEKAPVDFGYVGIDSILEQMRRKAMKQGFEFNIMVVGQSGLGKSTLINTLFKSKISRKSVQPTSEERIPKTIEIKSITHDIEEKGVRMKLTVIDTPGFGDHINNENCWQPIMKFINDQYEKYLQEEVNINRKKRIPDTRVHCCLYFIPATGHSLRPLDIEFMKRLSKVVNIVPVIAKADTLTLEERVHFKQRITADLLSNGIDVYPQKEFDEDSEDRLVNEKFREMIPFAVVGSDHEYQVNGKRILGRKTKWGTIEVENTTHCEFAYLRDLLIRTHMQNIKDITSSIHFEAYRVKRLNEGSSAMANGVEEKEPEAPEM
